Reference: the supplement of paper PMC9170038

Tested on: MS2 coat protein
Test: apparent KD of MS2 coat protein; designed switch direction (-1 OFF switch, 1 ON switch): -1; higher = weaker reporter binding
How it was run: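 Designed RNA switches with common flanks were made on Illumina chips by stalled E. coli RNA polymerase. Titration with SNAP-549-labelled MS2 coat protein doubled from 0.7 or 1.5 nM up to 3 µM. Apparent KD is each design's median over clusters after curve-fitting normalised fluorescence.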

[1] = input ligand: microRNA oligo, concentration not stated
[2] = Eterna round: R95, input ligand: FMN 200 uM
[3] = Eterna round: R95, input ligand: microRNA oligo, concentration not stated
[4] = Eterna round: R95, input ligand: none

Sequence	apparent KD of MS2 coat protein (input ligand: FMN 200 uM) [nM]	apparent KD of MS2 coat protein (input ligand: none) [nM]	apparent KD of MS2 coat protein [1] [nM]	apparent KD of MS2 coat protein [2] [nM]	apparent KD of MS2 coat protein [3] [nM]	apparent KD of MS2 coat protein [4] [nM]
UGUGUGAGACAGGAUAUGCUGGAUGAGAGGCAGGUAGAAGGGUCUACAUGAGGAUCACCCAUGUGGCCGGUUGG [Ex6 #72] (Eterna round: R97, puzzle: Exclusion 6)	26.9	26.3	–	–	–	–
AACAGGUCAGGAUAUACAUGAGGAUCACCCAUGUAGACUUCUGGUCUACCGAGACCGUGUAGAAGGGACCUGAA [Exclusion 3 (MOD3 of #98 Marzena11)] (Eterna round: R97, puzzle: Exclusion 3)	104	35.7	–	–	–	–
UUAAUUAAUUAAGGCUGAAGAUCACAUGAGGAUCACCCAUGUAAGGAUAUCAGCUCGUUUAGAGCUGAGAAGGUACAUGCAGCC [ExNG3/18-B2] (Eterna round: R96, puzzle: Exclusion NG 3)	160	370	568	–	–	–
UCAUGUCCAGAGGAUAUGUAGCGGGAGACCGCAACAGAAGGCUGGACAUGAGGAUCACCCAUGUGCGCCUUCGA [jl-ex3-4.27 ViennaUCT mod] (Eterna round: R97, puzzle: Exclusion 6)	35.9	113	–	–	–	–
CCUCUUGGGCAAGGAUAUCCUGUGCGGUUCCGGCUCGUGUCUGUCACAUGAGGAUCACCCAUGUGGGAGAAGGUGCCUGCGGUC [Design 80] (Eterna round: R96, puzzle: Exclusion NG 2)	13	16.3	10.7	–	–	–
GGAUAUAACGUAGGAUAUCUGAGAAACAGACGAAGAGAAGGACGACAUGAGGAUCACCCAUGUGAUCUAUCAAUAUUAUACAUG [Prohibition 99 - Jieux - Exclusion NG 1] (Eterna round: R96, puzzle: Exclusion NG 1)	412	351	330	–	–	–
GCUUUUGGGCAAGGAUAUCCUGCGCGGUUCUGGUUCGUGUCUGUCACAUGAGGAUCACCCAUGUGGGAGAAGGUGCCUGUGGUG [Design 71] (Eterna round: R96, puzzle: Exclusion NG 2)	38.1	23	16.9	–	–	–
AGUGCGUAUGUGAGGAUAUGCUGGUCCUUGGAUCAGCAGAAGGCACAUGAGGAUCACCCAUGUGGUGUCGUACG [salish99_Bmod_Ex4_004] (puzzle: Brourd's mod of Exclusion 4)	–	–	–	245	51.8	60
UGAAUGUGAGGAUAUGGUGAGUAGUGCCAGAGCGCUGCUCACCAGAAGGCACAUGAGGAUCACCCAUGUACUUG [Mat - Exclusion 4 - Mod of JL - D18] (puzzle: Exclusion 4)	–	–	–	–	47.8	–
CUGUUCCAUGUAGGAUAUGCAUAUUCUCAUUAUGCAGAAGGACAUGAGGAUCACCCAUGUAUGUUAUUAUCAUAUGUUACAUGU [Design 4] (Eterna round: R96, puzzle: Exclusion NG 1)	–	–	27.2	–	–	–
AUGAGCAGACGGAGAUCCAACAUGAGGAUCACCCAUGUCUCAUAAGCUUUUUGUUCAUCUUAUUGUACCUUGGUGCU [Mat - Sensor v3 - turn-off var 1 - JL Mod - D22] (puzzle: Sensor v3, turn-off variant 1)	–	–	–	53.7	12.6	67.7
AGUAUGCGGCAGGAUAUCCAUCCGCGAAAAGGUGGAGAAGGGCUGACAUGAGGAUCACCCAUGUGCGUCCUGUA [salish99_ex6_r4_030] (Eterna round: R97, puzzle: Exclusion 6)	25.3	17.7	–	–	–	–
CUGAACCCGGUAGGAUAUAUUGUGGGCGGGCGUGGAACGACAUGAGGAUCACCCAUGUAAUUGAGGUAGAAGGGCCGAGAGGUU [Excl-NG2-LRO16] (Eterna round: R96, puzzle: Exclusion NG 2)	38.5	43.8	30.4	–	–	–
CGUGCGUAUGUGAGGAUAUGCUGGUCCUUGGAUCAGCAGAAGGCACAUGAGGAUCACCCAUGUGGUGUCGUACG [salish99_Bmod_Ex4_018] (puzzle: Brourd's mod of Exclusion 4)	–	–	–	18.7	182	395
CCAUGAUAAGGAUAUUGAAGGUUCGACAUGAGGAUCACCCAUGUUAUGUUGGAAAAGGGACAAGAAGGUAUGAAUU [salish99_ex5_r4_220] (Eterna round: R97, puzzle: Exclusion 5)	34.7	35.1	–	–	–	–
CAAGUGCCGGAAGGAUAUCAGCGAUGUCACGCUUGAGAAGGUCUGUGCACAUGAGGAUCACCCAUGUCCGCCAGACUCCUUAAC [Eternabot solution 21] (Eterna round: R96, puzzle: Exclusion NG 1)	–	–	7.68	–	–	–
AUGCGACAUGAGGAUCACCCAUGUGAGGAUAUUCGAAUGCACAAUUCGGUGUGAUAGAGGAGAAGGCGCAGGUA [EX1 #19] (Eterna round: R97, puzzle: Exclusion 1)	154	243	–	–	–	–

Sequence	apparent KD of MS2 coat protein (input ligand: FMN 200 uM) [nM]	apparent KD of MS2 coat protein (input ligand: none) [nM]	apparent KD of MS2 coat protein [1] [nM]	apparent KD of MS2 coat protein [2] [nM]	apparent KD of MS2 coat protein [3] [nM]	apparent KD of MS2 coat protein [4] [nM]
CCAGGGCACAAUUAAACGCCCUAACAUGAGGAUCACCCAUGUCAGGAUAUGUAGGCAAAGACCCUACAGAAGGGACAUGUCCUA [Xegeat] (Eterna round: R96, puzzle: Exclusion NG 3)	217	49.9	76.1	–	–	–
AAUGCGGACAAAGGAUAUUGCGGUGACCGGCUCGGCGUACCGAGCCUACAUGAGGAUCACCCAUGUAAGAAGGUUGUCGCUAAA [Mat - Exclusion NG 2 - Mod of JL - D74] (Eterna round: R96, puzzle: Exclusion NG 2)	43.1	17.6	13.8	–	–	–
ACAUGAGGAUCACCCAUGUACUGGGUUUAGUUUCAUCGUUUGAAGGAUAUACUCCGUUAGUUGUCGUAGAAGGUCACAGUUUGG [JR_ExcNG3_Sub008] (Eterna round: R96, puzzle: Exclusion NG 3)	457	517	407	–	–	–
CAUGGAACGUAGGAUAUCUCGCAGCCCGACUGCAGAGAAGGACGUACAUGAGGAUCACCCAUGUAUGAUCCAAA [Vexeoren] (puzzle: Exclusion 6)	–	–	–	29.2	18.1	23.3
UUAAGCUUUGAGAUCCUUAACAUGAGGAUCACCCAUGUUCGUCUUAUGAUGGUCUGAUCCCUGAGGAUCGGACCGUA [Mat - Sensor v3 - turn-off var 1 - JL Mod - D4] (puzzle: Sensor v3, turn-off variant 1)	–	–	–	180	11.2	219
GAAAAGAAGCUAGGAUAUGCAUGACGGAUACCCGUGAGCACGUAGCAGACAUGAGGAUCACCCAUGUAGAAGGAGCGAAGAAAU [Veteriat] (Eterna round: R96, puzzle: Exclusion NG 2)	251	52.8	43.6	–	–	–
ACGUGAUAUCUGUCGGUGGACAUGAGGAUCACCCAUGUAAGCUUUUUGCUCGUCUUACAACCCGGUGACAGACCUUC [Essodiis] (puzzle: Sensor v3, turn-off variant 1)	–	–	–	138	275	166
UUGGUGUCAGGAUAUGCACAGGUCGCACAAAUUGCAGCCUAGCAGAAGGGACAUGAGGAUCACCCAUGUACUCU [EX4 B.21] (Eterna round: R97, puzzle: Exclusion 4)	30	18.8	–	–	–	–
GUGGUUCCUGUCAGGAUAUACGCGGACCACCACCUGUAGAAGGGACAUGAGGAUCACCCAUGUUUUCCAAAGCG [Eternabot (L2) Solution 80] (Eterna round: R97, puzzle: Brourd's mod of Exclusion 4)	13.2	13	–	–	–	–
GCUUGUAGAGGAUAUACAAGGGCCUUAGCGGAUAACACCGCACAUGAGGAUCACCCAUGUAGAAGGCUACCACC [Veorlace] (puzzle: Exclusion 2)	–	–	–	–	16.6	–
AAAAGAGGAGGAUAUGCAAACAAUGUAAAAGUGAAAGUAAAACAUGAGGAUCACCCAUGUAGAAGGCCUGAAAA [nah] (puzzle: Exclusion 2)	–	–	–	20	20.4	20.2
CAAACGGCUUUAGGAUAUGACUUUUCGUACAUGAGGAUCACCCAUGUCAGGACUGGUGGUGCGAGUCAGAAGGAGAGUCAAGAA [Eternabot solution 30] (Eterna round: R96, puzzle: Exclusion NG 2)	94.3	176	99.2	–	–	–
AUCUUGUCAGGAUAUCUGACAAGUGACGAAAGUCACAGUUCAGAGAAGGUACAUGAGGAUCACCCAUGUAGAAC [Ex4-3: 40] (puzzle: Exclusion 4)	–	–	–	–	19.1	–
CUUAGACAUGAGGAUCACCCAUGUGAGGAUAUGAAAUUAAUUAAUUAUGAAGUAUGAAUCAGAAGGCACAUAUG [Mat - Mod of Hyphema D35] (puzzle: Exclusion 1)	–	–	–	71.7	78.6	118
AAAAUAAAGAUGCCUUUAAACAUGAGGAUCACCCAUGUGAGUAAGGAUAUCGGAACCAAUCGCGACGAGAAGGUACUCGCGUGU [Relela] (Eterna round: R96, puzzle: Exclusion NG 3)	12.1	15.7	11.1	–	–	–
CAGUACUGAGGAUAUACAUGAGGAUCACCCAUGUGGUCCAGCUAGGAAACUAGCAAAAGUAGAAGGCAGUACUG [salish99_ex3_r3_083] (puzzle: Exclusion 3)	–	–	–	12.5	71.5	218
